Reference: US20230111363A1 (LMMUNOMETABOLISM DEVELOPMENT, published 2023)

T1: human monocarboxylate transporter 1 (MCT1) (human, UniProt P53985 1-500)
T1 sequence: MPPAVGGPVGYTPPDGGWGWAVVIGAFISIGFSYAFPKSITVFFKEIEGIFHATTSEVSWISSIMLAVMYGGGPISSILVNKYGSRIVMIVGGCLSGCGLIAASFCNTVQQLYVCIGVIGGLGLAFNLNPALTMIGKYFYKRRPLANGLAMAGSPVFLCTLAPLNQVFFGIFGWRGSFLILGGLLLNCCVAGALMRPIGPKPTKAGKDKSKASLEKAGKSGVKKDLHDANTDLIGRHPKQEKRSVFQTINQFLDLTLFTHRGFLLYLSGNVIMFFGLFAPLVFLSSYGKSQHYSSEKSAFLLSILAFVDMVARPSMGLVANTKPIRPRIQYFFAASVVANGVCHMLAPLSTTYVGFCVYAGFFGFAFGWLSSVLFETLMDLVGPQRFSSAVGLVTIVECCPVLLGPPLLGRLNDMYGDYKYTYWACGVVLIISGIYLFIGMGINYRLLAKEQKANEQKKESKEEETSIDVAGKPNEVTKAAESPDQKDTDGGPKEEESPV


Experiments:
[1] = target: T1, human monocarboxylate transporter 1 …; assay: cell-based or functional assay
[2] = target: T1, human monocarboxylate transporter 1 …; assay: cell-based or functional assay; remark: listed apart in the source
[3] = target: T1, human monocarboxylate transporter 1 …; assay: competition MSD binding assay, antibody titrated with HEK WT cells expressing MCT1, apparent KD, screening at 25 C
Method: The mix was incubated at 37° C. for 1-2 days. After incubation, the incubated samples were spun down for 5 min at 500×g to remove cells. A 96-well multi-array plate (Meso Scale Diagnostics, Cat. #L15XA-3) was coated at 4° C. overnight with 1 μg/mL of goat anti human FC in phosphate buffered saline (PBS). Following coating, plates were washed 3 times with 150 μL PBST (PBS with 0.05% Tween 20) and blocked with 150 μL/well of PBS 3% blocker A buffer (Cat #R93BA-1) at 25° C. for 1 hr. Plates were then washed 3 times with PBST. 50 μL of the preincubated antibody: cell dilution series was transferred to the wells and incubated at 25° C. with 700 rpm shaking for 1 hr. Plates were washed 3 times with PBST. Then 100 μL of 1 μg/mL anti-human kappa-biotin antibody (Cat. #2060-08) was added, and plates were incubated at 25° C. with 700 rpm shaking […]. Plates were washed 3 times with PBST, followed by addition of 100 μL of 1 μg/mL MSD Sulfo-tag streptavidin antibody (Meso Scale Diagnostics Cat. #R32 AD1), and plates were incubated at 25° C. with 700 rpm shaking for 1 hr. Plates were washed 3 times with PBST, 150 μL/well of 1× Read Buffer T was added to the wells and analyzed on a SECTOR® Imager 6000 (Meso Scale Diagnostics) 15 min after buffer addition. The apparent KD is determined by fitting a sigmoidal curve to the electrochemiluminescence (ECL) response vs. log (MCT1 receptor concentration) using assay development tool kit graphed with normalized ECL values.

Binder	IC50 of inhibition of MCT1 mediated transport (bromopyruvate assay, HEK293T cells) [1]	IC50 of inhibition of CD4 T cell proliferation [2]	IC50 of inhibition of CD8 T cell proliferation [2]	Kd [3]
anti-human MCT1 antibody Ab11 (antibody, human IgG1, kappa, V domains shown, IgG1EN backbone) VH: QVQLVQSGAEVKKPGASVKVSCTVSGRSLTNYHLQWVRQAPGQGLEWMGFIRSSGNTEYNSEFKSRVTMTRDTSTSTVYMELSSLRSEDTAVYYCARNRWHHGTYYSPGYYVMDAWGQGTLVTVSS VL: EIVLTQSPGTLSLSPGERATLSCKGSQNIENYLAWYQQKPGQAPRLLIYNRHNLQTGIPDRFSGSGSGTDFTLTISRLEPEDFAVYYCYQYSDGYTFGGGTKVEIKR	35 nM	4 nM	5 nM	1.91 nM
anti-human MCT1 antibody Ab19 (antibody, human IgG1, kappa, V domains shown, IgG1EN backbone) VH: QVQLVQSGAEVKKPGASVKVSCTVSGRSLTNYHLQWVRQAPGQGLEWMGFIRRSGNTEYNSEFKSRVTMTRDTSTSTVYMELSSLRSEDTAVYYCARNRWYHGTYYSPGYYVMDAWGQGTLVTVSS VL: EIVLTQSPGTLSLSPGERATLSCKGSQNIENYLAWYQQKPGQAPRLLIYNRHNLQTGIPDRFSGSGSGTDFTLTISRLEPEDFAVYYCYQYSDGYTFGGGTKVEIKR	35 nM	5 nM	3 nM	0.46 nM
anti-human MCT1 antibody Ab15 (antibody, human IgG1, kappa, V domains shown, IgG1EN backbone) VH: QVQLVQSGAEVKKPGASVKVSCTVSGRSLTNYHLQWVRQAPGQGLEWMGFIRSSGNTEYNSEFKSRVTMTRDTSTSTVYMELSSLRSEDTAVYYCARNLWYHGTYYSPGYYVMDAWGQGTLVTVSS VL: EIVLTQSPGTLSLSPGERATLSCKGSQNIENYLAWYQQKPGQAPRLLIYNRHNLQTGIPDRFSGSGSGTDFTLTISRLEPEDFAVYYCYQYSDGYTFGGGTKVEIKR	48 nM	5 nM	8 nM	1.96 nM
anti-human MCT1 antibody Ab12 (antibody, human IgG1, kappa, V domains shown, IgG1EN backbone) VH: QVQLVQSGAEVKKPGASVKVSCTVSGRSLTNYHLVWVRQAPGQGLEWMGFIRSSGNTEYNSEFKSRVTMTRDTSTSTVYMELSSLRSEDTAVYYCARNRWYHGTYYSPGYYVMDAWGQGTLVTVSS VL: EIVLTQSPGTLSLSPGERATLSCKGSQNIENYLAWYQQKPGQAPRLLIYNRHNLQTGIPDRFSGSGSGTDFTLTISRLEPEDFAVYYCYQYSDGYTFGGGTKVEIKR	39 nM	4 nM	5 nM	1.64 nM
anti-human MCT1 antibody Ab14 (antibody, human IgG1, kappa, V domains shown, IgG1EN backbone) VH: QVQLVQSGAEVKKPGASVKVSCTVSGRSLTNYHLQWVRQAPGQGLEWMGFIRSSGNTEYNSEFKSRVTMTRDTSTSTVYMELSSLRSEDTAVYYCARNRWYHGTYYSPGYYVMDPWGQGTLVTVSS VL: EIVLTQSPGTLSLSPGERATLSCKGSQNIENYLAWYQQKPGQAPRLLIYNRHNLQTGIPDRFSGSGSGTDFTLTISRLEPEDFAVYYCYQYSDGYTFGGGTKVEIKR	40 nM	5 nM	6 nM	1.31 nM
anti-human MCT1 antibody Ab18 (antibody, human IgG1, kappa, V domains shown, IgG1EN backbone) VH: QVQLVQSGAEVKKPGASVKVSCTVSGRSLTNYHLGWVRQAPGQGLEWMGFIRSSGNTEYNSEFKSRVTMTRDTSTSTVYMELSSLRSEDTAVYYCARNRWYHGTYYSPGYYVMDAWGQGTLVTVSS VL: EIVLTQSPGTLSLSPGERATLSCKGSQNIENYLAWYQQKPGQAPRLLIYNRHNLQTGIPDRFSGSGSGTDFTLTISRLEPEDFAVYYCYQYSDGYTFGGGTKVEIKR	41 nM	6 nM	2 nM	5.14 nM

The remaining binders from weak to strong by Kd [3], led by results:

IC50 of inhibition of MCT1 mediated transport (bromopyruvate assay, HEK293T cells) [1]	IC50 of inhibition of CD4 T cell proliferation [2]	IC50 of inhibition of CD8 T cell proliferation [2]	Kd [3]	Binder
35 nM	4 nM	5 nM	4.56 nM	anti-human MCT1 antibody Ab9 (antibody, human IgG1, kappa, V domains shown, IgG1EN backbone) VH: QVQLVQSGAEVKKPGASVKVSCTVSGRSLTNYHIQWVRQAPGQGLEWMGFIRSSGNTEYNSEFKSRVTMTRDTSTSTVYMELSSLRSEDTAVYYCARNRWYHGTYYSPGYYVMDAWGQGTLVTVSS VL: EIVLTQSPGTLSLSPGERATLSCKGSQNIENYLAWYQQKPGQAPRLLIYNRHNLQTGIPDRFSGSGSGTDFTLTISRLEPEDFAVYYCYQYSDGYTFGGGTKVEIKR
42 nM	3 nM	4 nM	2.82 nM	anti-human MCT1 antibody Ab13 (antibody, human IgG1, kappa, V domains shown, IgG1EN backbone) VH: QVQLVQSGAEVKKPGASVKVSCTVSGRSLTNYHLQWVRQAPGQGLEWMGFIRSSGNTEYNSEFKSRVTMTRDTSTSTVYMELSSLRSEDTAVYYCARNRWRHGTYYSPGYYVMDAWGQGTLVTVSS VL: EIVLTQSPGTLSLSPGERATLSCKGSQNIENYLAWYQQKPGQAPRLLIYNRHNLQTGIPDRFSGSGSGTDFTLTISRLEPEDFAVYYCYQYSDGYTFGGGTKVEIKR
38 nM	5 nM	2 nM	1.04 nM	anti-human MCT1 antibody Ab17 (antibody, human IgG1, kappa, V domains shown, IgG1EN backbone) VH: QVQLVQSGAEVKKPGASVKVSCTVSGRSLTNIHLQWVRQAPGQGLEWMGFIRSSGNTEYNSEFKSRVTMTRDTSTSTVYMELSSLRSEDTAVYYCARNRWYHGTYYSPGYYVMDAWGQGTLVTVSS VL: EIVLTQSPGTLSLSPGERATLSCKGSQNIENYLAWYQQKPGQAPRLLIYNRHNLQTGIPDRFSGSGSGTDFTLTISRLEPEDFAVYYCYQYSDGYTFGGGTKVEIKR
39 nM	3 nM	7 nM	0.85 nM	anti-human MCT1 antibody Ab10 (antibody, human IgG1, kappa, V domains shown, IgG1EN backbone) VH: QVQLVQSGAEVKKPGASVKVSCTVSGRSLTGYHLQWVRQAPGQGLEWMGFIRSSGNTEYNSEFKSRVTMTRDTSTSTVYMELSSLRSEDTAVYYCARNRWYHGTYYSPGYYVMDAWGQGTLVTVSS VL: EIVLTQSPGTLSLSPGERATLSCKGSQNIENYLAWYQQKPGQAPRLLIYNRHNLQTGIPDRFSGSGSGTDFTLTISRLEPEDFAVYYCYQYSDGYTFGGGTKVEIKR
31 nM	5 nM	3 nM	0.71 nM	anti-human MCT1 antibody Ab16 (antibody, human IgG1, kappa, V domains shown, IgG1EN backbone) VH: QVQLVQSGAEVKKPGASVKVSCTRSGRSLTNYHLQWVRQAPGQGLEWMGFIRSSGNTEYNSEFKSRVTMTRDTSTSTVYMELSSLRSEDTAVYYCARNRWYHGTYYSPGYYVMDAWGQGTLVTVSS VL: EIVLTQSPGTLSLSPGERATLSCKGSQNIENYLAWYQQKPGQAPRLLIYNRHNLQTGIPDRFSGSGSGTDFTLTISRLEPEDFAVYYCYQYSDGYTFGGGTKVEIKR
21 nM	3 nM	3 nM	0.55 nM	anti-human MCT1 antibody Ab8 (antibody, human IgG1, kappa, V domains shown, IgG1EN backbone) VH: QVQLVQSGAEVKKPGASVKVSCTVSGRSLTNYHLQWVRQAPGQGLEWMGFIRSSGNTIYNSEFKSRVTMTRDTSTSTVYMELSSLRSEDTAVYYCARNRWYHGTYYSPGYYVMDAWGQGTLVTVSS VL: EIVLTQSPGTLSLSPGERATLSCKGSQNIENYLAWYQQKPGQAPRLLIYNRHNLQTGIPDRFSGSGSGTDFTLTISRLEPEDFAVYYCYQYSDGYTFGGGTKVEIKR
28 nM	2 nM	4 nM	0.47 nM	anti-human MCT1 antibody Ab7 (antibody, human IgG1, kappa, V domains shown, IgG1EN backbone) VH: QVQLVQSGAEVKKPGASVKVSCTVSGRSRTNYHLQWVRQAPGQGLEWMGFIRSSGNTEYNSEFKSRVTMTRDTSTSTVYMELSSLRSEDTAVYYCARNRWYHGTYYSPGYYVMDAWGQGTLVTVSS VL: EIVLTQSPGTLSLSPGERATLSCKGSQNIENYLAWYQQKPGQAPRLLIYNRHNLQTGIPDRFSGSGSGTDFTLTISRLEPEDFAVYYCYQYSDGYTFGGGTKVEIKR
